Here are results for 1 molecule from patent US20230250154A1 (CYTONICS, published 2023).

Assay in all cases: cell-based or functional assay
Test [1] concerns the target bovine trypsin (bovine, UniProt P00760 24-246).
For test [2], the target named is Elastase.
Test [3] concerns the target T1, Cathepsin G (UniProt P08311 21-244).
T1 sequence (looked up): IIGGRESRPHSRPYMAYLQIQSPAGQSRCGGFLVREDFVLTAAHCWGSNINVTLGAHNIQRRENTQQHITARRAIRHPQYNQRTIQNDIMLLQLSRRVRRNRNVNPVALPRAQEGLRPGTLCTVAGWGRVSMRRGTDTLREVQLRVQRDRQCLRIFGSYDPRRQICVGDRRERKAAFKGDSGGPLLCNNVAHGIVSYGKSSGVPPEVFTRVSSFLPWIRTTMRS

Test [4] concerns the target chymotrypsin.
The target of test [5] is MMP3 (human, UniProt P08254 100-477, limits assumed).
Test [6] concerns the target T2, MMP2 (human, UniProt P08253 110-660, limits assumed).
T2 sequence (looked up): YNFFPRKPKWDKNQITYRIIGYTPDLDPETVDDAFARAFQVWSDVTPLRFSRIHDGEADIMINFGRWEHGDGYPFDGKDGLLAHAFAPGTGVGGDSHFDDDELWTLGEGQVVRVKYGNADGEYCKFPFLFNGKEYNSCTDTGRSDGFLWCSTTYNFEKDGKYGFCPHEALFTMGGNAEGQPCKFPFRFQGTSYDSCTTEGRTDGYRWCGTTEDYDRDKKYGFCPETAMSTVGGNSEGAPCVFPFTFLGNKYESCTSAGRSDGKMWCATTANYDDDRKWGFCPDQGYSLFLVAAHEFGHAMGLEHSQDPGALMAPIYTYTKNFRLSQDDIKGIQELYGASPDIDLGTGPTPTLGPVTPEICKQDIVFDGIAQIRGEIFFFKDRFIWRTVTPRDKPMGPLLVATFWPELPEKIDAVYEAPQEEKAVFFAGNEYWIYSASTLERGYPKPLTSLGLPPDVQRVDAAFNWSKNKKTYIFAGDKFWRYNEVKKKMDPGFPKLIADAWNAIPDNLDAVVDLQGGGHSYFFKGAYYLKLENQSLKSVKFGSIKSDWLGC

The target in test [7] is MMP13 (human, UniProt P45452 104-471, limits assumed).
Test [8] concerns the target T3, MMP1 (human, UniProt P03956 100-469, limits assumed).
T3 sequence (looked up): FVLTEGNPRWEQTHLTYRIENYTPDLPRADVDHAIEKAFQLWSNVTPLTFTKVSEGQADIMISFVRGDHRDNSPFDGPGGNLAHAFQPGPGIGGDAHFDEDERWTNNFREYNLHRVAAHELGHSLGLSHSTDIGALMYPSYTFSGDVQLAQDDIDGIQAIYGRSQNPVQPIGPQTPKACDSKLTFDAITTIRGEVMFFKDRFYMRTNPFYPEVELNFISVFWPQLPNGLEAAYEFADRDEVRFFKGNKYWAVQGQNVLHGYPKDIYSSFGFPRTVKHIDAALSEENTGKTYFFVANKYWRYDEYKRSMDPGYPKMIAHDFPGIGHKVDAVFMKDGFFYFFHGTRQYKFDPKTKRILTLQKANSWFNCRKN

Test [9] concerns the target T4, ADAMTS5 (human, UniProt Q9UNA0 262-622, limits assumed).
T4 sequence (looked up): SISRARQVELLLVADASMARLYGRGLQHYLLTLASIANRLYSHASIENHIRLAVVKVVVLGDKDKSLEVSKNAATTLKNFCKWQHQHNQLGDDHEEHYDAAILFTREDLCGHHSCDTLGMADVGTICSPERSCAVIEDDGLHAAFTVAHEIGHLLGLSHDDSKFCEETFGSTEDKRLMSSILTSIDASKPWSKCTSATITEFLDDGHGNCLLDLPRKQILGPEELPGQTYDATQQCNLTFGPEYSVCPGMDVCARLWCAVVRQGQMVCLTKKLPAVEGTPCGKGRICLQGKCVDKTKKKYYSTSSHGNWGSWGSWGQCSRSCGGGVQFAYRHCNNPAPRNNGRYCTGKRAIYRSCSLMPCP

For test [10], the target named is T5, ADAMTS4 (human, UniProt O75173 213-685, limits assumed).
T5 sequence (looked up): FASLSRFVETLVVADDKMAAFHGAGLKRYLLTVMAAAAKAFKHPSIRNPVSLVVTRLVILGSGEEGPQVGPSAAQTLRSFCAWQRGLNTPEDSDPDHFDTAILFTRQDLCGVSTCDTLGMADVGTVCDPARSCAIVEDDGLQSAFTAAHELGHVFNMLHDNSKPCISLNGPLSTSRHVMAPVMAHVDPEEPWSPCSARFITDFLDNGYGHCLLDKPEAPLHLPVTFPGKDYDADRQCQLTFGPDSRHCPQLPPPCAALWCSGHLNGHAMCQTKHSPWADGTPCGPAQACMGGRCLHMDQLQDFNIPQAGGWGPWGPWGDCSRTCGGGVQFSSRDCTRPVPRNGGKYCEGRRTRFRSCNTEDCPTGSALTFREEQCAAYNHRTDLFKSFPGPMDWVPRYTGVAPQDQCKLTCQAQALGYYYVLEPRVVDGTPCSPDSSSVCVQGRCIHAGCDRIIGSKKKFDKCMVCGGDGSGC

In test [11] the target is MMP9 (human, UniProt P14780 107-707, limits assumed).
For test [12], the target named is MMP12 (human, UniProt P39900 106-470, limits assumed).
Test [13] concerns the target MMP8 (human, UniProt P22894 101-467, limits assumed).

bovine trypsin, sequence (P00760 24-246): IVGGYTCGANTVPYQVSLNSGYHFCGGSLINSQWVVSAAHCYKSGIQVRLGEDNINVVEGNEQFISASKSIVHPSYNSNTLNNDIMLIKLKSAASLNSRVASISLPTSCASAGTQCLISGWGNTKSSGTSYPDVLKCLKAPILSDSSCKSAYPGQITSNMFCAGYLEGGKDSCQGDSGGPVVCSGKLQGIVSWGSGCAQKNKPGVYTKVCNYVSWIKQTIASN
MMP8, sequence (P22894 101-467 limits assumed): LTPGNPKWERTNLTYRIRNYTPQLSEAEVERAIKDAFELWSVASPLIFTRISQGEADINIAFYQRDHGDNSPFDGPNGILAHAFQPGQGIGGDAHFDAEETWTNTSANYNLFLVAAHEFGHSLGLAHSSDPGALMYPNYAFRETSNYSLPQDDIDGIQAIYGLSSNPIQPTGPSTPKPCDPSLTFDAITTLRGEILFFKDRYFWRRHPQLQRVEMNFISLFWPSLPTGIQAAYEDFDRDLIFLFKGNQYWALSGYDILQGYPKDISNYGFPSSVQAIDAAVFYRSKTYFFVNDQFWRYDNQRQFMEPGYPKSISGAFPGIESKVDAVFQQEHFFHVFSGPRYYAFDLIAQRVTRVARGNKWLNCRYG
MMP9, sequence (P14780 107-707 limits assumed): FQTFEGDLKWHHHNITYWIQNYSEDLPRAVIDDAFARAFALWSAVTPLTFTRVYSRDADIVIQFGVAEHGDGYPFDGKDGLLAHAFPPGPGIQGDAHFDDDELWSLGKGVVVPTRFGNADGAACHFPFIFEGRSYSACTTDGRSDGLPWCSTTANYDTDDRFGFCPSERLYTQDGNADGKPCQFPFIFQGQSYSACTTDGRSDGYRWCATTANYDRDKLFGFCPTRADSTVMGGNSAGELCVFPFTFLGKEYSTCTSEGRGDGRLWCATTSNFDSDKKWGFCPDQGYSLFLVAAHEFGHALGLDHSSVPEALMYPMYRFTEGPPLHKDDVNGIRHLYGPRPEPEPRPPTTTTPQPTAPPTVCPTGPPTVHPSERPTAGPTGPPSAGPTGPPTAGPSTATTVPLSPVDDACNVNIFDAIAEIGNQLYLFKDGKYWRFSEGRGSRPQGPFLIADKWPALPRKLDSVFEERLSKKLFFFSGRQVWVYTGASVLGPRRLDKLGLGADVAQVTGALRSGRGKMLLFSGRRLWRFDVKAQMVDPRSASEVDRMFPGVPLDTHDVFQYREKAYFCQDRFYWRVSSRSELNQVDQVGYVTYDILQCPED
MMP12, sequence (P39900 106-470 limits assumed): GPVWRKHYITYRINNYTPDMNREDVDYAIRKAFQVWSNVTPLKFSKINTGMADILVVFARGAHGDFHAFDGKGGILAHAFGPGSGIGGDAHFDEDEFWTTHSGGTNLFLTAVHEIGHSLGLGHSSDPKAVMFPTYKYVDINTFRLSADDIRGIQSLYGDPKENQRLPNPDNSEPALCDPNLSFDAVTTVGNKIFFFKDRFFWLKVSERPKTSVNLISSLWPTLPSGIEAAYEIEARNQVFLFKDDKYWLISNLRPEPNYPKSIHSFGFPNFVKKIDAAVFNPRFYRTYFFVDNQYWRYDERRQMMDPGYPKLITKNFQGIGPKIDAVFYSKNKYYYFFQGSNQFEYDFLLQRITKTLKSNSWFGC
MMP3, sequence (P08254 100-477 limits assumed): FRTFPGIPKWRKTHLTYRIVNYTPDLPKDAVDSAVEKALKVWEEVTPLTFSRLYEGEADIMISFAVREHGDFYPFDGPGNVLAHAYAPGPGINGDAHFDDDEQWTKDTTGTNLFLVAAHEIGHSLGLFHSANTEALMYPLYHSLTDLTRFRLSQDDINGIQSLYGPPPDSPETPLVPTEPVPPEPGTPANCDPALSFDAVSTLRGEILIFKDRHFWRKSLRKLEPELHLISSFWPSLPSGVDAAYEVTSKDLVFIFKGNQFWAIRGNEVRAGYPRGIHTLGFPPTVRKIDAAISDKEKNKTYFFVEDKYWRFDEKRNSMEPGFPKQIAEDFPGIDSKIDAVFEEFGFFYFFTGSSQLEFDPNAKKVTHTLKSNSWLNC

B1: Variant A2M, bait region SEQ ID NO 136 (other)
chain: SVSGKPQYMVLVPSLLHTETTEKGCVLLSYLNETVTVSASLESVRGNRSLFTDLEAENDVLHCVAFAVPKSSSNEEVMFLTVQVKGPTQEFKKRTTVMVKNEDSLVFVQTDKSIYKPGQTVKFRVVSMDENFHPLNELIPLVYIQDPKGNRIAQWQSFQLEGGLKQFSFPLSSEPFQGSYKVVVQKKSGGRTEHPFTVEEFVLPKFEVQVTVPKIITILEEEMNVSVCGLYTYGKPVPGHVTVSICRKYSDASDCHGEDSQAFCEKFSGQLNSHGCFYQQVKTKVFQLKRKEYEMKLHTEAQIQEEGTVVELTGRQSSEITRTITKLSFVKVDSHFRQGIPFFGQVRLVDGKGVPIPNKVIFIRGNEANYYSNATTDEHGLVQFSINTTNVMGTSLTVRVNYKDRSPCYGYQWVSEEHEEAHHTAYLVFSPSKSFVHLEPMSHELPCGHTQTVQAHYILNGGTLLGLKKLSFYYLIMAKGGIVRTGTHGLLVKQEDMKGHFSISIPVKSDIAPVARLLIYAVLPTGDVIGDSAKYDVENCLANKVDLSFSPSQSLPASHAHLRVTAAPQSVCALRAVDQSVLLMKPDAELSASSVYNLLPEKDLTGFPGPLNDQDDEDCINRHNVYINGITYTPVSSTNEKDMYSFLEDMGLKAFTNSKIRKPKMCPQLEQYEMHGPKEEEGLGSIPENFFGVSELEGRGSEGEGEGEGVEEPHTKLRKYFPETWIWDLVVVNSAGVAEVGVTVPDTITEWKAGAFCLSEDAGLGISSTASLRAFQPFFVELTMPYSVIRGEAFTLKATVLNYLPKCIRVSVQLEASPAFLAVPVEKEQAPHCICANGRQTVSWAVTPKSLGNVNFTVSAEALESQELCGTEVPSVPEHGRKDTVIKPLLVEPEGLEKETTFNSLLCPSGGEVSEELSLKLPPNVVEESARASVSVLGDILGSAMQNTQNLLQMPYGCGEQNMVLFAPNIYVLDYLNETQQLTPEIKSKAIGYLNTGYQRQLNYKHYDGSYSTFGERYGRNQGNTWLTAFVLKTFAQARAYIFIDEAHITQALIWLSQRQKDNGCFRSSGSLLNNAIKGGVEDEVTLSAYITIALLEIPLTVTHPVVRNALFCLESAWKTAQEGDHGSHVYTKALLAYAFALAGNQDKRKEVLKSLNEEAVKKDNSVHWERPQKPKAPVGHFYEPQAPSAEVEMTSYVLLAYLTAQPAPTSEDLTSATNIVKWITKQQNAQGGFSSTQDTVVALHALSKYGAATFTRTGKAAQVTIQSSGTFSSKFQVDNNNRLLLQQVSLPELPGEYSMKVTGEGCVYLQTSLKYNILPEKEEFPFALGVQTLPQTCDEPKAHTSFQISLSVSYTGSRSASNMAIVDVKMVSGFIPLKPTVKMLERSNHVSRTEVSSNHVLIYLDKVSNQTLSLFFTVLQDVPVRDLKPAIVKVYDYYETDEFAIAEYNAPCSKDLGNADYKDDDDKGASHHHHHH
Turning to B1, the “Protease Inhibition (% of WT)” value is 221 % of WT in test [1]; 250 % of WT in test [2]; 376 % of WT in test [3]; 25 % of WT in test [4]; 130 % of WT in [5]; 47 % of WT in test [6]. For the same molecule, the “Protease Inhibition (% of WT)” value in [7] was 113 % of WT; in [8], 370 % of WT; in test [9], 373 % of WT; in [10], 80 % of WT; in test [11], 500 % of WT; in test [12], 150 % of WT. Also, in test [13], the “Protease Inhibition (% of WT)” value is 133 % of WT.
